Reference: patent publication US20260159603A1 (BEAM THERAPEUTICS, published 2026)

T1: biotinylated human CD5-HIS (human, UniProt P06127 25-372, biotinylated)
T1 construct: Loaded onto streptavidin Octet pins; also called huCD5; SA-human CD5; not shown: HIS tag
T1 sequence (looked up): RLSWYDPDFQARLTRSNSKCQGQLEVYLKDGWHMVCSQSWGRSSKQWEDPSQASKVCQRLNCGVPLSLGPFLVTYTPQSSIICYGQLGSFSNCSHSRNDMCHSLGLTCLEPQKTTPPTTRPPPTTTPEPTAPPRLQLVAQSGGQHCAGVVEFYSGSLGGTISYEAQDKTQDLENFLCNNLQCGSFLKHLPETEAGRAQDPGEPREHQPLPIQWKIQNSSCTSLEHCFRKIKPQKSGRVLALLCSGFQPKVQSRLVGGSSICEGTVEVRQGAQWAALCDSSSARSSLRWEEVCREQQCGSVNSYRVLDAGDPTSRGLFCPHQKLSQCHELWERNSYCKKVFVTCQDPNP

T2: human CD5 on transfected HEK293T cells (human, UniProt P06127 25-495)
T2 construct: whole, on cells; also called huCD5; Human CD5 Cells
T2 sequence (looked up): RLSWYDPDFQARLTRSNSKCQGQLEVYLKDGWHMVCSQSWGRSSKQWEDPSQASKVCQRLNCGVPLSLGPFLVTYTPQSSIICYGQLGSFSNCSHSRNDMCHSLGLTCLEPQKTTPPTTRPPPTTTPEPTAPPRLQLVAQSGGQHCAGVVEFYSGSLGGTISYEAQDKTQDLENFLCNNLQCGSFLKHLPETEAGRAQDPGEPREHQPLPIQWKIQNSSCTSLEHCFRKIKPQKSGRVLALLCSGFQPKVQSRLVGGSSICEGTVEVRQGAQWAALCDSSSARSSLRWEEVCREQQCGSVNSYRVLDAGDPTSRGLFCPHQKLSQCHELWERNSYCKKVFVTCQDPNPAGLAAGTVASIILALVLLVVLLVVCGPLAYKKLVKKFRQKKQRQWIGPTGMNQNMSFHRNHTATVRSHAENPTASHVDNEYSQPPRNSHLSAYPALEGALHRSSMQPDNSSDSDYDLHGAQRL

B1: ABTx323 (VHH)
VHH: QVQLQESGGGLVQAGGSLRLSCATSGITSSINVIGWYRQAPGKQRELVALVNSGGQTHYADSVKGRFTISRDNAKNTVFLQMNSLKPEDTAEYYCHGRYGIDNYWGEGTQVTVSS
notes: VHH in periplasmic extract of the phage display clone; also called clone 155; not shown: c-myc tag of the phagemid construct (detected with anti-c-myc 9E10)
B2: ABTx324 (VHH)
VHH: QVQLVESGGGLVQPGGSVRLSCATSGSIFSTNVMGWYRQAPGKEREFVALIRGGGSTHYADSVKGRFIISRENAKTTVYLQMNGLKPEDTAVYYCVIWLGSPGAMSDYWGQGTQVTVSS
notes: VHH in periplasmic extract of the phage display clone; also called clone 550; not shown: c-myc tag of the phagemid construct (detected with anti-c-myc 9E10)
B3: ABTx325 (VHH)
VHH: QVQLVESGGGLVQPGGSLRLSCAASGSDASTNNMAWYRQAPGKEREFVALIRTGGSTHVADSMKGRFTISRENAKNTVYLQMNSLKPEDTAVYYCVIWTGSPGALSDYWGQGTQVTVSS
notes: VHH in periplasmic extract of the phage display clone; also called clone 420; not shown: c-myc tag of the phagemid construct (detected with anti-c-myc 9E10)
B4: ABTx326 (VHH)
VHH: QVQLVESGGGLVQPGGSLRLSCAASGRTFINYAAGWFRQAPGKEREFVARISRSGGRTDYADSVKGRFTISRDNAKSTVYLQMNSLRPEDTAVYYCAEATVWEFTDGADQYDYWGQGTQVTVSS
notes: VHH in periplasmic extract of the phage display clone; also called clone 199; not shown: c-myc tag of the phagemid construct (detected with anti-c-myc 9E10)
B5: ABTx327 (VHH)
VHH: QVQLVESGGGLVQPGGSLRLSCVASGGTFSTYGMGWFRQAPGKEREFVAVITGSGVGTQYADSVKDRFTISRENAKNTVYLQMNTLKLEDTAVYYCVSGHRPGWAVIRADAYEYWGQGTQVTVSS
notes: VHH in periplasmic extract of the phage display clone; also called clone 834; not shown: c-myc tag of the phagemid construct (detected with anti-c-myc 9E10)
B6: ABTx329 (VHH)
VHH: QLQLVESGGGLVQPGESLRLSCAASGFSFSRVGMNWYRQAPGKERELVASISSDGSRTNYAHFVKGRFTISRDNVKNMVYLQMNSLKLEDTAVYYCNVPGNSWGQGTQVTVSS
notes: VHH in periplasmic extract of the phage display clone; also called clone 1091; not shown: c-myc tag of the phagemid construct (detected with anti-c-myc 9E10)

target: T1, biotinylated human CD5-HIS; assay: BLI; KD on human CD5 divided by KD on cynomolgus CD5

Binder | Hu/Cyno KD
B1 | 0.9
B2 | 0.7
B3 | 0.8
B4 | 0.9
B5 | 0.3
B6 | 0.4

target: T1, biotinylated human CD5-HIS; assay: BLI (Octet), biotinylated CD5-HIS on streptavidin pins

Binder | Kd | koff | kon
B1 | 1.2 nM | 0.00011 s⁻¹ | 93000 M⁻¹ s⁻¹
B2 | 1.7 nM | 0.00017 s⁻¹ | 99000 M⁻¹ s⁻¹
B3 | 1.5 nM | 0.00013 s⁻¹ | 90000 M⁻¹ s⁻¹
B4 | 2 nM | 0.00015 s⁻¹ | 74000 M⁻¹ s⁻¹
B5 | 0.22 nM | 3.6e-05 s⁻¹ | 160000 M⁻¹ s⁻¹
B6 | 0.69 nM | 9.3e-05 s⁻¹ | 130000 M⁻¹ s⁻¹

target: T3, biotinylated cynomolgus CD5-HIS (cynomolgus); assay: as above
T3 construct: Loaded onto streptavidin Octet pins; also called CynoCD5; SA-Cyno CD5

Binder | Kd | koff | kon
B1 | 1.3 nM | 0.00012 s⁻¹ | 89000 M⁻¹ s⁻¹
B2 | 2.3 nM | 0.00016 s⁻¹ | 71000 M⁻¹ s⁻¹
B3 | 1.8 nM | 0.00013 s⁻¹ | 68000 M⁻¹ s⁻¹
B4 | 2.2 nM | 0.00015 s⁻¹ | 68000 M⁻¹ s⁻¹
B5 | 0.78 nM | 0.00011 s⁻¹ | 140000 M⁻¹ s⁻¹
B6 | 1.6 nM | 0.00017 s⁻¹ | 110000 M⁻¹ s⁻¹

target: T1, biotinylated human CD5-HIS; assay: BLI (Octet), biotinylated CD5-HIS on streptavidin pins, periplasmic extract, off-rate

Binder | koff
B1 | 0.000138 s⁻¹
B2 | 0.00271 s⁻¹
B3 | 0.0027 s⁻¹
B4 | 0.000825 s⁻¹
B5 | 0.0195 s⁻¹
B6 | 0.000372 s⁻¹

target: T3, biotinylated cynomolgus CD5-HIS; assay: as above

Binder | koff
B1 | 0.000347 s⁻¹
B2 | 0.0177 s⁻¹
B3 | 0.0143 s⁻¹
B4 | 0.00415 s⁻¹
B5 | 0.0329 s⁻¹
B6 | 0.000488 s⁻¹

target: T2, human CD5 on transfected HEK293T cells; assay: flow cytometry, periplasmic extract on transfected HEK293T cells

Binder | percent of cells showing binding
B1 | 64.1%
B2 | 73.3%
B3 | 77.4%
B4 | 41.6%
B5 | 68%
B6 | 72%

target: T4, cynomolgus CD5 on transfected HEK293T cells (cynomolgus (Table 8B); rhesus macaque …); assay: as above
T4 construct: whole, on cells; also called Cynomolgus CD5 Cells; rhesus macaque (Macaca mulatta) CD5

Binder | percent of cells showing binding
B1 | 54.6%
B2 | 73.2%
B3 | 80%
B4 | 58.4%
B5 | 71.7%
B6 | 66.5%
